Experimental data taken from article PMC8826744 (2022).

B1: farletuzumab-FuG1 (antibody, V domains shown)
VH: EVQLVESGGGVVQPGRSLRLSCSASGFTFSGYGLSWVRQAPGKGLEWVAMISSGGSYTYYADSVKGRFAISRDNAKNTLFLQMDSLRPEDTGVYFCARHGDDPAWFAYWGQGTPVTVSS
VL: DIQLTQSPSSLSASVGDRVTITCSVSSSISSNNLHWYQQKPGKAPKPWIYGTSNLASGVPSRFSGSGSGTDYTFTISSLQPEDIATYYCQQWSSYPYMYTFGQGTKVEIK
B2: farletuzumab-cFuG1 (antibody, V domains shown)
VH: B1 VH
VL: B1 VL

Assays:
[1] = target: T1, recombinant furin, biotinylated (UniProt P09958 27-794, biotin); assay: BLI
T1 sequence (P09958 108-715): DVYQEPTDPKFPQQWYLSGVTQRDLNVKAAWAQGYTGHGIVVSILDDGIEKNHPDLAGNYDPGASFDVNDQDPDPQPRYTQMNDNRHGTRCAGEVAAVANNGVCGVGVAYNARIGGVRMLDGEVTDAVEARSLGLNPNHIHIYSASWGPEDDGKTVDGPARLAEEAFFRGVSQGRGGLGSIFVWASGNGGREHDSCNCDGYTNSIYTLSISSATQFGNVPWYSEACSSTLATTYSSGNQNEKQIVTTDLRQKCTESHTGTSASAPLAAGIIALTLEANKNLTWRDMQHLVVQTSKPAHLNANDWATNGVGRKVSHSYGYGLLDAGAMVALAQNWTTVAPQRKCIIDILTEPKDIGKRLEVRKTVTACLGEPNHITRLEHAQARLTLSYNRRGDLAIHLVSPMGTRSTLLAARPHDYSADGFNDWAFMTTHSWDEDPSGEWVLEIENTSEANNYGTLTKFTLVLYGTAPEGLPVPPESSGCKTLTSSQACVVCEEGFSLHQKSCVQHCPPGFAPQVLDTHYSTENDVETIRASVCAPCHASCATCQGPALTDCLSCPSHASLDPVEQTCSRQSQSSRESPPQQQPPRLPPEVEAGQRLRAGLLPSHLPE

[2] = target: T1, recombinant furin, biotinylated; assay: BLI; remark: listed apart in the source

| Binder | koff [1] [s⁻¹] | Kd [2] [nM] |
| --- | --- | --- |
| B1 | 8.65e-05 | 33 |
| B2 | 0.000312 | 7.5 |
